From patent US20170266254A1 (AILERON THERAPEUTICS, published 2017)
Bridges are numbered along the chain shown (N, C = ends). [ ]: non-standard residue; d: D form. S5 = C=CCCC[C@](C)(N)C(=O)O

T1: C-terminally 6x Histidine-tagged Beta-Catenin (aa 134-668, 59 KD) (UniProt P35222 134-668)
T1 construct: range 134-668; Armadillo repeat region
T1 sequence: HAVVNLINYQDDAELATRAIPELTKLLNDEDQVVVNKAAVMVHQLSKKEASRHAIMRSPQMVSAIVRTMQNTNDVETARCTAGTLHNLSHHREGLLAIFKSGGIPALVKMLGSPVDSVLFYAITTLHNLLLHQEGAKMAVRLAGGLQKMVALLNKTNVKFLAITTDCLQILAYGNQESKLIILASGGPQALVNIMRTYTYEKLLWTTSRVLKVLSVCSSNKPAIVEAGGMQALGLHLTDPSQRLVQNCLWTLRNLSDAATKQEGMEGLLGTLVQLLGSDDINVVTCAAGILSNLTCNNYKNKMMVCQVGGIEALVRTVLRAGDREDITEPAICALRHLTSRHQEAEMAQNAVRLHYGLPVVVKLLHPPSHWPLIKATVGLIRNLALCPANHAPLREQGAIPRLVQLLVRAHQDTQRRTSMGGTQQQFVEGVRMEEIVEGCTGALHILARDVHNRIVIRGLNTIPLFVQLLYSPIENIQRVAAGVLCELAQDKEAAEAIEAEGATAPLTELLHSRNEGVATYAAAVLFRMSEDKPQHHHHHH

B1: SP31 (peptide)
peptide: Ac-LGANDELISFKDEGEQEEKSSENSSAE[S5]DLA[S5]VKSSLV-NH2
modifications: staple 28-32
SMILES: CC[C@H](C)[C@H](NC(=O)[C@H](CC(C)C)NC(=O)[C@H](CCC(=O)O)NC(=O)[C@H](CC(=O)O)NC(=O)[C@H](CC(N)=O)NC(=O)[C@H](C)NC(=O)CNC(=O)[C@H](CC(C)C)NC(C)=O)C(=O)N[C@@H](CO)C(=O)N[C@@H](Cc1ccccc1)C(=O)N[C@@H](CCCCN)C(=O)N[C@@H](CC(=O)O)C(=O)N[C@@H](CCC(=O)O)C(=O)NCC(=O)N[C@@H](CCC(=O)O)C(=O)N[C@@H](CCC(N)=O)C(=O)N[C@@H](CCC(=O)O)C(=O)N[C@@H](CCC(=O)O)C(=O)N[C@@H](CCCCN)C(=O)N[C@@H](CO)C(=O)N[C@@H](CO)C(=O)N[C@@H](CCC(=O)O)C(=O)N[C@@H](CC(N)=O)C(=O)N[C@@H](CO)C(=O)N[C@@H](CO)C(=O)N[C@@H](C)C(=O)N[C@@H](CCC(=O)O)C(=O)N[C@@]1(C)CCCC=CCCC[C@@](C)(C(=O)N[C@H](C(=O)N[C@@H](CCCCN)C(=O)N[C@@H](CO)C(=O)N[C@@H](CO)C(=O)N[C@@H](CC(C)C)C(=O)N[C@H](C(N)=O)C(C)C)C(C)C)NC(=O)[C@H](C)NC(=O)[C@H](CC(C)C)NC(=O)[C@H](CC(=O)O)NC1=O
B2: SP49 (peptide)
peptide: Ac-LGANDELISF[S5]DEG[S5]QQQKSSENSSA[S5]RDL[S5]NVKSSLV-NH2
modifications: staple 11-15, 27-31
SMILES: CC[C@H](C)[C@H](NC(=O)[C@H](CC(C)C)NC(=O)[C@H](CCC(=O)O)NC(=O)[C@H](CC(=O)O)NC(=O)[C@H](CC(N)=O)NC(=O)[C@H](C)NC(=O)CNC(=O)[C@H](CC(C)C)NC(C)=O)C(=O)N[C@@H](CO)C(=O)N[C@@H](Cc1ccccc1)C(=O)N[C@@]1(C)CCCC=CCCC[C@@](C)(C(=O)N[C@@H](CCC(N)=O)C(=O)N[C@@H](CCC(N)=O)C(=O)N[C@@H](CCC(N)=O)C(=O)N[C@@H](CCCCN)C(=O)N[C@@H](CO)C(=O)N[C@@H](CO)C(=O)N[C@@H](CCC(=O)O)C(=O)N[C@@H](CC(N)=O)C(=O)N[C@@H](CO)C(=O)N[C@@H](CO)C(=O)N[C@@H](C)C(=O)N[C@@]2(C)CCCC=CCCC[C@@](C)(C(=O)N[C@@H](CC(N)=O)C(=O)N[C@H](C(=O)N[C@@H](CCCCN)C(=O)N[C@@H](CO)C(=O)N[C@@H](CO)C(=O)N[C@@H](CC(C)C)C(=O)N[C@H](C(N)=O)C(C)C)C(C)C)NC(=O)[C@H](CC(C)C)NC(=O)[C@H](CC(=O)O)NC(=O)[C@H](CCCNC(=N)N)NC2=O)NC(=O)CNC(=O)[C@H](CCC(=O)O)NC(=O)[C@H](CC(=O)O)NC1=O
B3: SP59 (peptide)
peptide: LGANDELISFADEGAQEEKSSNNSSAARDLAAVKSSLV
modifications: not fully specified; N-terminal acetyl; C-terminal amide; $ = (S)-alpha-(2'-pentenyl)alanine at positions 11 and 15 (first crosslink) and 27 and 31 (second crosslink), each pair joined by an all-carbon crosslinker with one double bond
B4: SP57 (peptide)
peptide: LGANDELISFANQGAQEEKSSNNSSAARNLADVKSSLV
modifications: not fully specified; N-terminal acetyl; C-terminal amide; $ = (S)-alpha-(2'-pentenyl)alanine at positions 11 and 15 (first crosslink) and 27 and 31 (second crosslink), each pair joined by an all-carbon crosslinker with one double bond
B5: SP38 (peptide)
peptide: LGANDELISFADEGAQEEKSSNNSSAEADLAAVKSSLV
modifications: not fully specified; N-terminal acetyl; C-terminal amide; $ = (S)-alpha-(2'-pentenyl)alanine at positions 11 and 15 (first crosslink) and 28 and 32 (second crosslink), each pair joined by an all-carbon crosslinker with one double bond
B6: SP48 (peptide)
peptide: Ac-LGANDELISF[S5]DQG[S5]QEQKSSENSSA[S5]RDL[S5]NVKSSLV-NH2
modifications: staple 11-15, 27-31
SMILES: CC[C@H](C)[C@H](NC(=O)[C@H](CC(C)C)NC(=O)[C@H](CCC(=O)O)NC(=O)[C@H](CC(=O)O)NC(=O)[C@H](CC(N)=O)NC(=O)[C@H](C)NC(=O)CNC(=O)[C@H](CC(C)C)NC(C)=O)C(=O)N[C@@H](CO)C(=O)N[C@@H](Cc1ccccc1)C(=O)N[C@@]1(C)CCCC=CCCC[C@@](C)(C(=O)N[C@@H](CCC(N)=O)C(=O)N[C@@H](CCC(=O)O)C(=O)N[C@@H](CCC(N)=O)C(=O)N[C@@H](CCCCN)C(=O)N[C@@H](CO)C(=O)N[C@@H](CO)C(=O)N[C@@H](CCC(=O)O)C(=O)N[C@@H](CC(N)=O)C(=O)N[C@@H](CO)C(=O)N[C@@H](CO)C(=O)N[C@@H](C)C(=O)N[C@@]2(C)CCCC=CCCC[C@@](C)(C(=O)N[C@@H](CC(N)=O)C(=O)N[C@H](C(=O)N[C@@H](CCCCN)C(=O)N[C@@H](CO)C(=O)N[C@@H](CO)C(=O)N[C@@H](CC(C)C)C(=O)N[C@H](C(N)=O)C(C)C)C(C)C)NC(=O)[C@H](CC(C)C)NC(=O)[C@H](CC(=O)O)NC(=O)[C@H](CCCNC(=N)N)NC2=O)NC(=O)CNC(=O)[C@H](CCC(N)=O)NC(=O)[C@H](CC(=O)O)NC1=O
B7: SP58 (peptide)
peptide: Ac-LGANDELLSF[S5]DEG[S5]QQEKSSENSSA[S5]RDL[S5]NVKSSLV-NH2
modifications: staple 11-15, 27-31
SMILES: CC(=O)N[C@@H](CC(C)C)C(=O)NCC(=O)N[C@@H](C)C(=O)N[C@@H](CC(N)=O)C(=O)N[C@@H](CC(=O)O)C(=O)N[C@@H](CCC(=O)O)C(=O)N[C@@H](CC(C)C)C(=O)N[C@@H](CC(C)C)C(=O)N[C@@H](CO)C(=O)N[C@@H](Cc1ccccc1)C(=O)N[C@@]1(C)CCCC=CCCC[C@@](C)(C(=O)N[C@@H](CCC(N)=O)C(=O)N[C@@H](CCC(N)=O)C(=O)N[C@@H](CCC(=O)O)C(=O)N[C@@H](CCCCN)C(=O)N[C@@H](CO)C(=O)N[C@@H](CO)C(=O)N[C@@H](CCC(=O)O)C(=O)N[C@@H](CC(N)=O)C(=O)N[C@@H](CO)C(=O)N[C@@H](CO)C(=O)N[C@@H](C)C(=O)N[C@@]2(C)CCCC=CCCC[C@@](C)(C(=O)N[C@@H](CC(N)=O)C(=O)N[C@H](C(=O)N[C@@H](CCCCN)C(=O)N[C@@H](CO)C(=O)N[C@@H](CO)C(=O)N[C@@H](CC(C)C)C(=O)N[C@H](C(N)=O)C(C)C)C(C)C)NC(=O)[C@H](CC(C)C)NC(=O)[C@H](CC(=O)O)NC(=O)[C@H](CCCNC(=N)N)NC2=O)NC(=O)CNC(=O)[C@H](CCC(=O)O)NC(=O)[C@H](CC(=O)O)NC1=O
B8: SP47 (peptide)
peptide: Ac-LGANDELISF[S5]DEG[S5]QEEKSSENSSA[S5]RDL[S5]NVKSSLV-NH2
modifications: staple 11-15, 27-31
SMILES: CC[C@H](C)[C@H](NC(=O)[C@H](CC(C)C)NC(=O)[C@H](CCC(=O)O)NC(=O)[C@H](CC(=O)O)NC(=O)[C@H](CC(N)=O)NC(=O)[C@H](C)NC(=O)CNC(=O)[C@H](CC(C)C)NC(C)=O)C(=O)N[C@@H](CO)C(=O)N[C@@H](Cc1ccccc1)C(=O)N[C@@]1(C)CCCC=CCCC[C@@](C)(C(=O)N[C@@H](CCC(N)=O)C(=O)N[C@@H](CCC(=O)O)C(=O)N[C@@H](CCC(=O)O)C(=O)N[C@@H](CCCCN)C(=O)N[C@@H](CO)C(=O)N[C@@H](CO)C(=O)N[C@@H](CCC(=O)O)C(=O)N[C@@H](CC(N)=O)C(=O)N[C@@H](CO)C(=O)N[C@@H](CO)C(=O)N[C@@H](C)C(=O)N[C@@]2(C)CCCC=CCCC[C@@](C)(C(=O)N[C@@H](CC(N)=O)C(=O)N[C@H](C(=O)N[C@@H](CCCCN)C(=O)N[C@@H](CO)C(=O)N[C@@H](CO)C(=O)N[C@@H](CC(C)C)C(=O)N[C@H](C(N)=O)C(C)C)C(C)C)NC(=O)[C@H](CC(C)C)NC(=O)[C@H](CC(=O)O)NC(=O)[C@H](CCCNC(=N)N)NC2=O)NC(=O)CNC(=O)[C@H](CCC(=O)O)NC(=O)[C@H](CC(=O)O)NC1=O

target: T1, C-terminally 6x Histidine-tagged …; assay: competitive fluorescence polarization, FAM-labelled linear probe as competitor, His-tagged beta-catenin 134-668
Experimental: The following experiments are performed at room temperature unless otherwise noted. First, an assay buffer is prepared composed of 25 mM Tris-Hcl pH 7.5, 200 mM Sodium Chloride, and 5 mM CHAPS. Next, 1M DTT is added to assay buffer to a final concentration of 2 mM. […] Forty μl of this protein stock is added to all but six wells of a 96 well plate (which will serve as the free peptide and Blank). Test competitor peptides are diluted from 1 mM DMSO stocks to 2× working stocks in assay buffer. Further dilutions are made in assay buffer-DMSO as to maintain a constant DMSO concentration in all wells. The dilution is carried out such that the peptides have a working concentration range of 40 μM-0.7 μM (2×). As a benchmark, a linear, non-crosslinked peptide competitor is prepared as above but with a working concentration range of 13-0.7 μM. Fifty μl of the competitor 2× stocks are added to the 40 μl of protein solution previously transferred into the assay 96 well plate. Next, a 10× stock of the fluorescent probe is prepared. The probe is identical to the linear benchmark peptide except for the n-terminal conjugation of a FAM flourophore with Beta-Alanine spacer. A 1 mM DMSO stock of the probe is serially diluted to a final concentration of 25 nM (10×) and 10 μl of this stock is added to all wells except for those that will serve as the blank. The assay plate is stored in the dark and the reaction is allowed to run at room temperature for three hours. The reaction is then read on a Biotek Synergy 2 with the following settings: 100 ms delay, 40 measurements per well, with excitation filters of […], and emission filters of […]. Data is then analyzed in Graphpad Prism.

Binder | IC50 [nM]
B1 | 248
B2 | 1650
B3 | 300
B4 | 407
B5 | 83
B6 | 461
B7 | 324
B8 | 176
